# According to patent publication US20240383978A1 (NOVAROCK BIOTHERAPEUTICS, published 2024):
# T1: human Nectin-4 (human, UniProt Q96NY8 32-510)
# T1 construct: Expressed on CHO cells; also called CHO-Nectin 4
# T1 sequence: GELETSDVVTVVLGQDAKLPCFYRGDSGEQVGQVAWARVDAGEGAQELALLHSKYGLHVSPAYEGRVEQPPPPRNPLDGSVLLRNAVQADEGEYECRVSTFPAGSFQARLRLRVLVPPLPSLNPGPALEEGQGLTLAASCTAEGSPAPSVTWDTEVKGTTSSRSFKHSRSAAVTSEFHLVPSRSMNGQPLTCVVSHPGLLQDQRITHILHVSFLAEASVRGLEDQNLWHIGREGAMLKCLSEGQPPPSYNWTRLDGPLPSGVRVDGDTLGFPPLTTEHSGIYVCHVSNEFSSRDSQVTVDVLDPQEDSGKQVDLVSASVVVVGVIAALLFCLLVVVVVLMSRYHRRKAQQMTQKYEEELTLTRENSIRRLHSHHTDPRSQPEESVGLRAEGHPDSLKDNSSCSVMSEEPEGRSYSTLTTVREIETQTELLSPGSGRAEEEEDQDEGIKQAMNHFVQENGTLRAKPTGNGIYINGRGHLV
# B1: 1912Ab4 (bispecific antibody)
# heavy: not shown
# light: AIQLTQSPSSLSASVGDRVTITCRASQGINSWLAWYQQKPEKAPKSLIYAASSLQSGVPSRFSGSGSGTDFTLTISSLQPEDFATYYCQQYNFYPYTFGQGTKLEIIRTVAAPSVFIFPPSDEQLKSGTASVVCLLNNFYPREAKVQWKVDNALQSGNSQESVTEQDSKDSTYSLSSTLTLSKADYEKHKVYACEVTHQGLSSPVTKSFNRGEC
# B2: 1925Ab2 (bispecific antibody, human IgG1, kappa)
# heavy: not shown
# light: DIQMTQSPSSLSASVGDRVTITCKASQSVNNDVAWYQQKPGKAPKLLIYYASNRDTGVPSRFSGSGSGTDFTLTISSLQPEDFATYYCQQDYSSPYTFGQGTKLEIKRTVAAPSVFIFPPSDEQLKSGTASVVCLLNNFYPREAKVQWKVDNALQSGNSQESVTEQDSKDSTYSLSSTLTLSKADYEKHKVYACEVTHQGLSSPVTKSFNRGECGGGGSGGGGSGGGGSQVQLVESGGGVVQPGRSLRLSCAASGFTFSNYGMHWVRQAPGKCLEWVAIIWYDGINKYYADSVKGRFTISRDNSKNTLYLQMNSLKAEDTAVYYCARDQDYDILTGYYKEDYFDFWGQGTLVTVSSGGGGSGGGGSGGGGSGGGGSSYELTQPPSVSVSPGQTARITCSGDALPKKYAYWYQQKSGQAPVLVIYEDSKRPSGIPERFSGSSSGTMATLTISGAQVEDEADYYCYSTDSSGNRVFGCGTKLTVL
# B3: 1925Ab4 (antibody, human IgG1, kappa, V domains shown)
# VH: QVQLQQSGPELVKPGASVRISCKASGYTFTTYYIHWVKQRPGQGLEWIGWIYPGNVNTKYTENFKDKATLTADKSSSTAYMQLSSLTSEDSAVYFCARGLYYFDFWGQGTTLTVSS
# VL: SIVMTQTPKFLLVSAGDRVTITCKASQSVNNDVAWYQQKPGQSPKLLIYYASNRDTGVPDRFTGSGFGTDFTFTISSVQAEDLAVYFCQQDYSSPYTFGGGTKLEIKR
# notes: Parental murine anti-Nectin-4 antibody; also called parental murine monoclonal antibody; monospecific anti-Nectin-4 control antibody
# B4: 1912Ab3 (bispecific antibody, human IgG1, kappa, L234A L235A)
# heavy: not shown
# light: DIQLTQSPSFLSASVGDRVTITCRASQGISSYLAWYQQKPGKAPKLLIYAASTLQSGVPSRFSGSGSGTEFTLAVSSLQPEDFATYYCQQLNSYPYTFGQGTKLEIKRTVAAPSVFIFPPSDEQLKSGTASVVCLLNNFYPREAKVQWKVDNALQSGNSQESVTEQDSKDSTYSLSSTLTLSKADYEKHKVYACEVTHQGLSSPVTKSFNRGEC
# B5: 1925Ab1 (bispecific antibody, human IgG1, kappa, L234A L235A)
# heavy: not shown
# light: DIQMTQSPSSLSASVGDRVTITCKASQSVNNDVAWYQQKPGKAPKLLIYYASNRDTGVPSRFSGSGSGTDFTLTISSLQPEDFATYYCQQDYSSPYTFGQGTKLEIKRTVAAPSVFIFPPSDEQLKSGTASVVCLLNNFYPREAKVQWKVDNALQSGNSQESVTEQDSKDSTYSLSSTLTLSKADYEKHKVYACEVTHQGLSSPVTKSFNRGEC
# B6: 1925Ab3 (bispecific antibody, human IgG1, kappa, L234A L235A)
# heavy: not shown
# light: DIQMTQSPSSLSASVGDRVTITCKASQSVNNDVAWYQQKPGKAPKLLIYYASNRDTGVPSRFSGSGSGTDFTLTISSLQPEDFATYYCQQDYSSPYTFGQGTKLEIKRTVAAPSVFIFPPSDEQLKSGTASVVCLLNNFYPREAKVQWKVDNALQSGNSQESVTEQDSKDSTYSLSSTLTLSKADYEKHKVYACEVTHQGLSSPVTKSFNRGEC
# B7: 1901Ab2 (bispecific antibody, human IgG1, kappa, L234A L235A)
# heavy: not shown
# light: DIQLTQSPSFLSASVGDRVPITCRASQGISNFLAWYQQKPGKAPELLIHSASTLQSGVPSRFSGSGSGTEFTLTISNLQPQDFATYYCQQVNSYPLTFGGGTKVEIKRTVAAPSVFIFPPSDEQLKSGTASVVCLLNNFYPREAKVQWKVDNALQSGNSQESVTEQDSKDSTYSLSSTLTLSKADYEKHKVYACEVTHQGLSSPVTKSFNRGEC
# B8: 1901Ab3 (bispecific antibody, human IgG1, kappa, L234A L235A)
# heavy: not shown
# light: DIQLTQSPSFLSASVGDRVPITCRASQGISNFLAWYQQKPGKAPELLIHSASTLQSGVPSRFSGSGSGTEFTLTISNLQPQDFATYYCQQVNSYPLTFGGGTKVEIKRTVAAPSVFIFPPSDEQLKSGTASVVCLLNNFYPREAKVQWKVDNALQSGNSQESVTEQDSKDSTYSLSSTLTLSKADYEKHKVYACEVTHQGLSSPVTKSFNRGECGGGGSGGGGSGGGGSQVQLVESGGGVVQPGRSLRLSCAASGFTFSNYGMHWVRQAPGKCLEWVAIIWYDGINKYYADSVKGRFTISRDNSKNTLYLQMNSLKAEDTAVYYCARDQDYDILTGYYKEDYFDFWGQGTLVTVSSGGGGSGGGGSGGGGSGGGGSSYELTQPPSVSVSPGQTARITCSGDALPKKYAYWYQQKSGQAPVLVIYEDSKRPSGIPERFSGSSSGTMATLTISGAQVEDEADYYCYSTDSSGNRVFGCGTKLTVL
# Key:
# [1] = target: human CD137 on the cell surface (human, UniProt Q07011 24-255); experiment: cell-based or functional assay
# human Nectin-4 = target: T1, human Nectin-4; experiment: immunofluorescence cell binding, CHO cells expressing human Nectin 4, 10 µg/ml per the text
# Protocol: Bispecific Nectin-4/CD137 binding proteins were generated, produced, and purified as described in Example 4. To examine the binding activity of the BsAbs 1925Ab1, 1925Ab2 and 1925Ab3 to Nectin 4, CHO cells expressing human Nectin 4 were used in an immunofluorescence binding assay. The cells were cultured in F12K media with 10% FBS. On the day of the experiment, the cells were collected, washed, and stained with the binding proteins at 4° C. for 2 hours, followed by fixing cells with paraformaldehyde for 15 minutes at room temperature. The disclosed antibodies 1925Ab1, 1925Ab2 and 1925Ab3 are bispecific antibodies that bind to both Nectin-4 and CD137. Monospecific antibody 1925Ab4 (parental murine antibody) only binds to Nectin-4 and is used as a control antibody. The fixed cells were then washed with PBS three times, followed by staining the cells at room temperature for 1 hour with Alexa Fluor® 488 Goat Anti-Human IgG antibody (Invitrogen, Cat #: A-11013) for detection. The binding signal was assessed by quantifying the fluorescence intensity using iQue Screener PLUS (Sartorius, MI).
# Sequence of human CD137 on the cell surface (Q07011 24-255): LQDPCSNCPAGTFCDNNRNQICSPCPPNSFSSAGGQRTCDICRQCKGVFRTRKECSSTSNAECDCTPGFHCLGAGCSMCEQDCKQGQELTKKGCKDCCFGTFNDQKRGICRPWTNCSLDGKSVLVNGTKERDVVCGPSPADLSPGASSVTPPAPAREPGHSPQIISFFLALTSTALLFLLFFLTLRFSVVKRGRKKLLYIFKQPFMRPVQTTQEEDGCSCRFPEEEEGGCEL
binder,measurement,setting,value
B1,"EC50 of CD137 signaling (NFKB-Luc, Jurkat reporter cells co-cultured with NEC8 WT cells)",[1],0.18 nM
B2,"EC50 of CD137 signaling (NFKB-luc, Jurkat reporter cells with target cells)",[1],0.08 nM
B3,binding result,human Nectin-4,binds
B4,"EC50 of CD137 signaling (NFKB-Luc, Jurkat reporter cells co-cultured with NEC8 WT cells)",[1],0.2 nM
B5,"EC50 of CD137 signaling (NFKB-luc, Jurkat reporter cells with target cells)",[1],0.027 nM
B6,"EC50 of CD137 signaling (NFKB-luc, Jurkat reporter cells with target cells)",[1],0.049 nM
B7,"EC50 of CD137 signaling (NFKB-luc, Jurkat reporter cells co-cultured with NUGC4 cells)",[1],0.047 nM
B8,"EC50 of CD137 signaling (NFKB-luc, Jurkat reporter cells co-cultured with NUGC4 cells)",[1],0.1 nM
